Results as given in article PMC12335825.

Biological target: MD39 HIV Env stabilized SOSIP trimer (MD39 HIV Env gp140) (HIV)
Assay: SEC-MALS; immunogens after S200 Increase size-exclusion chromatography in TBS; DAWN HELEOS II and Optilab T-rEX

## MD39 HIV Env stabilized SOSIP trimer (MD39 HIV Env gp140)
  stoichiometry N: 3
